Kd data for one molecule are collected here from paper PMC3871196 (Experimental eye research, 2011).

The assay deals with purified Ca/CaM from bovine brain (bovine, UniProt P62157 1-149). Put plainly: fluorescence polarisation.

As usually defined, the Kd is the constant that tells how readily two partners part at equilibrium. Low readings indicate a tighter complex, high ones a looser complex.

On to ETWKAFLESVKKLGKG [PP-C peptide], for which the Kd is 190 nM.
